One molecule from patent publication US20110142812A1 (STC UNM, published 2011) can be followed below.

The target in assay [1] is T1, mouse FcγRI on macrophages (mouse, UniProt P26151 25-404).
T1 construct: whole, on cells; The receptor is assigned by using macrophages from knockout mice; Other receptors may be present on these cells; also called FcγRI on mouse macrophages (from FcγRIIb-/- mice)
T1 sequence (looked up): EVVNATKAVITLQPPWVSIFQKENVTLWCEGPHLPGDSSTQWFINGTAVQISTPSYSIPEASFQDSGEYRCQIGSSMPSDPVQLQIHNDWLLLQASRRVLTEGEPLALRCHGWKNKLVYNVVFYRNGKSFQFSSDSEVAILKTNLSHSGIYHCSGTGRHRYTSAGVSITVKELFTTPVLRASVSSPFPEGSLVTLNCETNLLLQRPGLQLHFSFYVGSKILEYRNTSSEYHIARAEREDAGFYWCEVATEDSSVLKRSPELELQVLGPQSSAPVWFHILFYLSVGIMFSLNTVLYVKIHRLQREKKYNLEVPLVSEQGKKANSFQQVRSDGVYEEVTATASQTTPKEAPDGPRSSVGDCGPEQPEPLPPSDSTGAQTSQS
Briefly: two-color flow cytometry on mouse peritoneal macrophages (FcγRIIb-/-), FITC-2C10 detection.

Assay [2] deals with T2, human FcγRI (human, UniProt P12314 16-292, limits assumed).
T2 construct: also called CD64
As to the kind of experiment: surface plasmon resonance, human FcγR.

T2 sequence (P12314 16-292 limits assumed): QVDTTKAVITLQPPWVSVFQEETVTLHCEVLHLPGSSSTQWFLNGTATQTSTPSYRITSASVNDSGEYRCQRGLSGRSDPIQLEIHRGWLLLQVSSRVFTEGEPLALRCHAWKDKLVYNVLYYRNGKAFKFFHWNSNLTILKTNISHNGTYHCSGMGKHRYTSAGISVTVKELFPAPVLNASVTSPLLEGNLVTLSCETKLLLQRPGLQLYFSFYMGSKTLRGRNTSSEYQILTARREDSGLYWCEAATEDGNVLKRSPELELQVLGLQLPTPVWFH

B1: Y175L CRP (recombinant mutant C-reactive protein in which tyrosine 175 is replaced by leucine) (ligand)
chain: QTDMSRKAFVFPKESDTSYVSLKAPLTKPLKAFTVCLHFYTELSSTRGYSIFSYATKRQDNEILIFWSKDIGYSFTVGGSEILFEVPEVTVAPVHICTSWESASGIVEFWVDGKPRVRKSLKKGYTVGAEASIILGQEQDSFGGNFEGSQSLVGDIGNVNMWDFVLSPDEINTILLGGPFSPNVLNWRALKYEVQGEVFTKPQLWP
notes: also called CRP mutant Y175L; recombinant mutant CRP (Y175L)
Turning to B1, the binding result in assay [1] and in assay [2] was “binds” throughout.
